The record followed here is patent publication US12746270 (dated 2026).

This test concerns the target human megalin (human). Nature of the test: SPR.

Chain of human megalin (human) (O00711 whole entry): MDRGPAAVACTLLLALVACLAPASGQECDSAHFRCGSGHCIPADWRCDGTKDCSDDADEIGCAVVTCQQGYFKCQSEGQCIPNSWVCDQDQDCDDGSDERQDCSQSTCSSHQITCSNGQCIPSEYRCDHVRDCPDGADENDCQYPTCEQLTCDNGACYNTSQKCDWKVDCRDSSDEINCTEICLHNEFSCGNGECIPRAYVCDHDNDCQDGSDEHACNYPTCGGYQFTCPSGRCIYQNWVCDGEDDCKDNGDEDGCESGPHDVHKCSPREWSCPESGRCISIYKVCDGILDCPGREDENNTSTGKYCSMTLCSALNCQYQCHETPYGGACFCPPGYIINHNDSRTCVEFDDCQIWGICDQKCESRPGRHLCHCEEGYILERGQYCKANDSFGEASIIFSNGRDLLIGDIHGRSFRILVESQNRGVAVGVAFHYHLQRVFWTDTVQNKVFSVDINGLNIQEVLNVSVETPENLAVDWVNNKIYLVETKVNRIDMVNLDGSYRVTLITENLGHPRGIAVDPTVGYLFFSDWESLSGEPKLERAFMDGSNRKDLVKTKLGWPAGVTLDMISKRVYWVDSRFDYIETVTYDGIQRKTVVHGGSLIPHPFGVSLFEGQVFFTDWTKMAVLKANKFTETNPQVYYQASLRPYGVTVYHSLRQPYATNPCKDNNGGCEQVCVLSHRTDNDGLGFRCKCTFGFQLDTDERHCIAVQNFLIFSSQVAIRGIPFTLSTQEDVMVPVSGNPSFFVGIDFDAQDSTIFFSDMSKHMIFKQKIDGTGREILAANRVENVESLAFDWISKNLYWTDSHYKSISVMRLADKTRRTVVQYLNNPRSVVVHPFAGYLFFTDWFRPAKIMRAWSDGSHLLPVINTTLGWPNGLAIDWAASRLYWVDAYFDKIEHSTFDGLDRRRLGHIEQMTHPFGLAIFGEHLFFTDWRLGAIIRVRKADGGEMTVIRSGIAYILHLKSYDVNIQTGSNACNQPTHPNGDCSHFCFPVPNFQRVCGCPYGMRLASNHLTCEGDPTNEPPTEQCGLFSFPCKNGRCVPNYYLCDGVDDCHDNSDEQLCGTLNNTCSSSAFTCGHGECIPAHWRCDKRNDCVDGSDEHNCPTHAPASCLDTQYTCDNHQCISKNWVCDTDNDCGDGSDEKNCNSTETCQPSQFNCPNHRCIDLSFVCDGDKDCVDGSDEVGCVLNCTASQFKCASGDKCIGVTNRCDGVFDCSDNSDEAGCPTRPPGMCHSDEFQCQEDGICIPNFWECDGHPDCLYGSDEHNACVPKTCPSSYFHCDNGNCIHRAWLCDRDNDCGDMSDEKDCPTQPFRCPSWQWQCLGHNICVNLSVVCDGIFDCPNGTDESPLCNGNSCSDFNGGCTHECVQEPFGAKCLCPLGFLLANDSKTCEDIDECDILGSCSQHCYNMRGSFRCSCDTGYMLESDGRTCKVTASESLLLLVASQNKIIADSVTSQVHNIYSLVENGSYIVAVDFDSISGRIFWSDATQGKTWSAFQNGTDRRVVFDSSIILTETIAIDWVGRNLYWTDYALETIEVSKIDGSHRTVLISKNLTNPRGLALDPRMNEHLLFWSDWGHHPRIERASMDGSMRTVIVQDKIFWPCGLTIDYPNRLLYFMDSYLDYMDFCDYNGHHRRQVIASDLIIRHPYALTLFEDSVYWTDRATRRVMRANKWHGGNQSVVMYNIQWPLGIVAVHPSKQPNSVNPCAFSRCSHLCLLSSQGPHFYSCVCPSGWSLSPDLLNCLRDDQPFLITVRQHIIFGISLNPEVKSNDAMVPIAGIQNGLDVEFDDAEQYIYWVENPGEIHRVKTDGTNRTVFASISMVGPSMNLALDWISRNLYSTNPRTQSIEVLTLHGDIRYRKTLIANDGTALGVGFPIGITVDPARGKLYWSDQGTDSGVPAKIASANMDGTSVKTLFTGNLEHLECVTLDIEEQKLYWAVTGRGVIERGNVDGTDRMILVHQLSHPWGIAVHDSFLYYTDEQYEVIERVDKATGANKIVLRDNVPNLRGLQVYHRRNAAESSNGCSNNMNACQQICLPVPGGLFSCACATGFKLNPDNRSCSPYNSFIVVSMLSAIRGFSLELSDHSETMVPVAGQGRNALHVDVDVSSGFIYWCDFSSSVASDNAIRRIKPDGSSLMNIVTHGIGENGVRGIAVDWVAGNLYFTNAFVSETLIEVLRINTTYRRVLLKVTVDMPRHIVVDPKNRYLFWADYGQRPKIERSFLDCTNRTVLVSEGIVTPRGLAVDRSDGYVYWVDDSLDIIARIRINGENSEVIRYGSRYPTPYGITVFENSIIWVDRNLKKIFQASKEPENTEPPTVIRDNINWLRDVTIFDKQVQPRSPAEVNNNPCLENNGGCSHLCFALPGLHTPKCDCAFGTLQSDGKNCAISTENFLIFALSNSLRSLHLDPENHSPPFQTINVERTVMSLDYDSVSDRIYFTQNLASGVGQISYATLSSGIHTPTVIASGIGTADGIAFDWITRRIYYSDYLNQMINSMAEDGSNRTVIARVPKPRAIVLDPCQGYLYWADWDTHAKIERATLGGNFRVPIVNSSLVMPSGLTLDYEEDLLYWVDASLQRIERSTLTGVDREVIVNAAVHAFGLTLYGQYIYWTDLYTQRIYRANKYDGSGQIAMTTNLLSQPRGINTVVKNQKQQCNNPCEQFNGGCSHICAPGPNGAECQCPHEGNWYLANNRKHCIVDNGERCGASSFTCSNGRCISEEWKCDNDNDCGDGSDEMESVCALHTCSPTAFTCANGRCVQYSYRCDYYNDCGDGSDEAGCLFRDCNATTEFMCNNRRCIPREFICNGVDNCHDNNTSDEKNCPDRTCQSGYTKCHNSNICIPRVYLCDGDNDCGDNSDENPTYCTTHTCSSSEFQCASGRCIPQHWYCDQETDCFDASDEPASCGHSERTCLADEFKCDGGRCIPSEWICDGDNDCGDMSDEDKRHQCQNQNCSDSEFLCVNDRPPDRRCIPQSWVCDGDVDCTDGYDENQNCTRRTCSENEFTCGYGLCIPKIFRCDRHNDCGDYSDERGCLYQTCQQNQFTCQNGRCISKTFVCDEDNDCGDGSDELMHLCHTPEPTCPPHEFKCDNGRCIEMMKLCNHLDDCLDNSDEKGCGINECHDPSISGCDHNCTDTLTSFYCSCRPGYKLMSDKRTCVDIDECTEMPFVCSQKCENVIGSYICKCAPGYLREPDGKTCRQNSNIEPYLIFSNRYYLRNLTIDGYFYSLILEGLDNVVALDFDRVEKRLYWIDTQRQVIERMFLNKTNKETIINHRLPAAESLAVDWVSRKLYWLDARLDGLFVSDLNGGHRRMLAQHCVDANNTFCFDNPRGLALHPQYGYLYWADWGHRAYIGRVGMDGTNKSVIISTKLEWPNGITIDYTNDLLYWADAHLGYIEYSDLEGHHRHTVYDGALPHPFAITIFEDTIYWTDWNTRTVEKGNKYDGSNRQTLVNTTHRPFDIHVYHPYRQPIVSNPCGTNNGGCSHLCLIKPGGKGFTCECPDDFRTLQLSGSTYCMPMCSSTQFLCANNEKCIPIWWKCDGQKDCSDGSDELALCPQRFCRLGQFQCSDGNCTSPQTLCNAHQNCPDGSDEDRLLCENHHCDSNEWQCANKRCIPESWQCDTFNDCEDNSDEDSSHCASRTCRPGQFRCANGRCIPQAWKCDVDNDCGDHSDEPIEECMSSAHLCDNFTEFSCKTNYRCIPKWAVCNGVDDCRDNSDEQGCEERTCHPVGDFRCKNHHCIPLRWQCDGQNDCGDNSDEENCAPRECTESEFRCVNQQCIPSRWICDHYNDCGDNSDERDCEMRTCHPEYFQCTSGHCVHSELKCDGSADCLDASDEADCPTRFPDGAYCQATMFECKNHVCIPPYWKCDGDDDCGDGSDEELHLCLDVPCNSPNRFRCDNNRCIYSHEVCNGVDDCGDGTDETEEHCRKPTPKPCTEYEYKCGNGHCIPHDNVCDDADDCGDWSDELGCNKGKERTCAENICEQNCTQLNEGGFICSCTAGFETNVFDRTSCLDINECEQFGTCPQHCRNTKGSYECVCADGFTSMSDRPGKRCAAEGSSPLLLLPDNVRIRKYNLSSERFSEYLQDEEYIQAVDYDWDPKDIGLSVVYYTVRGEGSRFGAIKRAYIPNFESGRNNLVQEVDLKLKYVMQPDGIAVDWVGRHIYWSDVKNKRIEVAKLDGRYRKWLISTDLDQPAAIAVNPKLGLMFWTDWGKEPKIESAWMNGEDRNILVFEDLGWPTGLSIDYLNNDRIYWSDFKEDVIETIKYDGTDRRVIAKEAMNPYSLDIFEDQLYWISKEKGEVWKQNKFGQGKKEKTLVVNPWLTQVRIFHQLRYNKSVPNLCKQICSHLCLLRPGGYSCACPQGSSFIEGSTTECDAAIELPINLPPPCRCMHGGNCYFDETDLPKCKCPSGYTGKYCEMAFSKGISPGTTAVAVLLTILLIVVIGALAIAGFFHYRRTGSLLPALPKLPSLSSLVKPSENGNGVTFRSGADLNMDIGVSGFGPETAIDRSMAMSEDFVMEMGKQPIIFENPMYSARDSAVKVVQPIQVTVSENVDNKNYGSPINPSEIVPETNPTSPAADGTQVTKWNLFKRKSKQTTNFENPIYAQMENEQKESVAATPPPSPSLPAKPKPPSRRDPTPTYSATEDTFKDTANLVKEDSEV

B1: WT human NGAL (ligand-free) (protein)
chain: QDSTSDLIPAPPLSKVPLQQNFQDNQFQGKWYVVGLAGNAILREDKDPQKMYATIYELKEDKSYNVTSVLFRKKKCDYWIRTFVPGCQPGEFTLGNIKSYPGLTSYLVRVVSTNYNQHAMVFFKKVSQNREYFKITLYGRTKELTSELKENFIRFSKSLGLPENHIVFPVPIDQCIDG
As a reminder, the Kd is the constant that tells how readily two partners part at equilibrium. A low value points to a tighter complex. For B1, the equilibrium dissociation constant (Kd) is roughly 60 nM.
